Measurements reported in publication doi:10.1101/2020.03.02.974154 (bioRxiv, 2020).

Target: the molecule itself
Assay: cryo-EM structure

B1: full-length chicken acid-sensing ion channel 1a (cASIC1a) (natural protein, Gallus gallus, UniProt Q1XA76 1-527, looked up)
chain: MMDLKVDEEEVDSGQPVSIQAFASSSTLHGISHIFSYERLSLKRVVWALCFMGSLALLALVCTNRIQYYFLYPHVTKLDEVAATRLTFPAVTFCNLNEFRFSRVTKNDLYHAGELLALLNNRYEIPDTQTADEKQLEILQDKANFRNFKPKPFNMLEFYDRAGHDIREMLLSCFFRGEQCSPEDFKVVFTRYGKCYTFNAGQDGKPRLITMKGGTGNGLEIMLDIQQDEYLPVWGETDETSFEAGIKVQIHSQDEPPLIDQLGFGVAPGFQTFVSCQEQRLIYLPPPWGDCKATTGDSEFYDTYSITACRIDCETRYLVENCNCRMVHMPGDAPYCTPEQYKECADPALDFLVEKDNEYCVCEMPCNVTRYGKELSMVKIPSKASAKYLAKKYNKSEQYIGENILVLDIFFEALNYETIEQKKAYEVAGLLGDIGGQMGLFIGASILTVLELFDYAYEVIKHRLCRRGKCRKNHKRNNTDKGVALSMDDVKRHNPCESLRGHPAGMTYAANILPHHPARGTFEDFTC
- stoichiometry N: 3
